Assay results: publication PMC11076521, “Structural basis for the intracellular regulation of ferritin degradation” (Nature Communications, 2024)

Tests used:
[1] = target: T1, human FTH1 wild type (recombinant ferritin nanocage) (human, UniProt P02794 1-183); assay: ITC; 16 injections of 3 uL NCOA4 into the cell containing ferritin; 25.00 C; 100 mM MOPS, 100 mM NaCl, pH 7.4; one class of independent binding sites; details: both partners purified
T1 construct: ferritin heavy chain (FTH1), human; plasmid from Addgene #122652; Homopolymer cage; also called FTH1-WT; WT-FTH1; source: E. coli BL21 (DE3), purified (heat treatment, HiTrap Q HP, ammonium sulfate); copies: 24

FTH1-S114D (recombinant) = target: T2, FTH1-S114D (recombinant) (human, UniProt P02794 1-183, S114D); assay: as above; details: both partners purified
T2 construct: ferritin heavy chain (FTH1), human, phosphomimetic mutant ordered from Twist Bioscience in pET-29b(+); source: E. coli BL21 (DE3), purified (heat treatment, HiTrap Q HP, ammonium sulfate)

[2] = target: T3, FTL S19R, Q26Y, A86D, K106N (L2H mutant, recombinant) (UniProt P02792 1-175, S19R | Q26Y | A86D | K106N); assay: as above; details: both partners purified
T3 construct: ferritin light chain (FTL) with four residues of FTH1 brought into the cleft; mutant ordered from Twist Bioscience in pET-29b(+); also called FTL mutant L2H; source: E. coli BL21 (DE3), purified (heat treatment, HiTrap Q HP, ammonium sulfate)

[3] = target: T4, N-terminally MYC-tagged FTH1-R23I (human, UniProt P02794 1-183, R23I); assay: co-IP; HEK293T-FTH1 KO cells, transient expression; anti-MYC agarose IP of MYC-FTH1, immunoblot; 50 mM Tris-HCl pH 7.5, 150 mM NaCl, 0.5% Nonidet P40, 1 mM DTT; quantified relative to FTH1-WT, normalized to immunoprecipitated FTH1; details: partners not purified
T4 construct: ferritin heavy chain (FTH1), NM_002032.3, mutant synthesized by Twist Bioscience in pTwist EF1 Alpha; source: HEK293T-FTH1 KO, transiently transfected, in lysate; not shown: MYC, N-terminal, kept

[4] = target: T5, N-terminally MYC-tagged FTH1-A19Y (human, UniProt P02794 1-183, A19Y); assay: as above; details: partners not purified
T5 construct: ferritin heavy chain (FTH1), NM_002032.3, mutant synthesized by Twist Bioscience in pTwist EF1 Alpha; source: HEK293T-FTH1 KO, transiently transfected, in lysate; not shown: MYC, N-terminal, kept

[5] = target: T6, N-terminally MYC-tagged FTH1-N22A (human, UniProt P02794 1-183, N22A); assay: as above; details: partners not purified
T6 construct: ferritin heavy chain (FTH1), NM_002032.3, mutant synthesized by Twist Bioscience in pTwist EF1 Alpha; source: HEK293T-FTH1 KO, transiently transfected, in lysate; not shown: MYC, N-terminal, kept

[6] = target: T7, N-terminally MYC-tagged FTH1-R23A (human, UniProt P02794 1-183, R23A); assay: as above; details: partners not purified
T7 construct: ferritin heavy chain (FTH1), NM_002032.3, mutant synthesized by Twist Bioscience in pTwist EF1 Alpha; source: HEK293T-FTH1 KO, transiently transfected, in lysate; not shown: MYC, N-terminal, kept

[7] = target: T8, N-terminally MYC-tagged FTH1-S114D (human, UniProt P02794 1-183, S114D); assay: as above; details: partners not purified
T8 construct: ferritin heavy chain (FTH1), NM_002032.3, phosphomimetic mutant synthesized by Twist Bioscience in pTwist EF1 Alpha; source: HEK293T-FTH1 KO, transiently transfected, in lysate; not shown: MYC, N-terminal, kept

[8] = target: T9, N-terminally MYC-tagged FTH1-S114E (human, UniProt P02794 1-183, S114E); assay: as above; details: partners not purified
T9 construct: ferritin heavy chain (FTH1), NM_002032.3, phosphomimetic mutant synthesized by Twist Bioscience in pTwist EF1 Alpha; source: HEK293T-FTH1 KO, transiently transfected, in lysate; not shown: MYC, N-terminal, kept

[9] = target: T10, N-terminally MYC-tagged FTH1-R23L (human, UniProt P02794 1-183, R23L); assay: as above; details: partners not purified
T10 construct: ferritin heavy chain (FTH1), NM_002032.3, mutant synthesized by Twist Bioscience in pTwist EF1 Alpha; source: HEK293T-FTH1 KO, transiently transfected, in lysate; not shown: MYC, N-terminal, kept
T10 sequence (P02794 whole entry R23L): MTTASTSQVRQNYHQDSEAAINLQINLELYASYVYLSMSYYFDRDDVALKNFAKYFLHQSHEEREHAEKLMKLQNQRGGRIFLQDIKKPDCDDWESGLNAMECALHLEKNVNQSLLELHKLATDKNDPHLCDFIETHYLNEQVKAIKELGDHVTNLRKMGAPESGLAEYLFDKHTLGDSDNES

T1 sequence (P02794 whole entry): as the sequence (P02794 whole entry R23L) above, with L23R counted along it
T2 sequence (P02794 whole entry S114D): as the sequence (P02794 whole entry R23L) above, with L23R, S114D counted along it
T3 sequence (P02792 whole entry S19R/Q26Y/A86D/K106N): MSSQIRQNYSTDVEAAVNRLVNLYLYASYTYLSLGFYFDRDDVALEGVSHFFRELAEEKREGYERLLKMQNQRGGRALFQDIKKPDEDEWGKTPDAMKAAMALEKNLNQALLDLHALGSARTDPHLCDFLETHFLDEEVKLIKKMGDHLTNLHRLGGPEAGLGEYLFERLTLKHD
T9 sequence (P02794 whole entry S114E): as the sequence (P02794 whole entry R23L) above, with L23R, S114E counted along it
T8 sequence (P02794 whole entry S114D): as the sequence (P02794 whole entry R23L) above, with L23R, S114D counted along it
T4 sequence (P02794 whole entry R23I): as the sequence (P02794 whole entry R23L) above, with L23I counted along it
T5 sequence (P02794 whole entry A19Y): as the sequence (P02794 whole entry R23L) above, with A19Y, L23R counted along it
T7 sequence (P02794 whole entry R23A): as the sequence (P02794 whole entry R23L) above, with L23A counted along it
T6 sequence (P02794 whole entry N22A): as the sequence (P02794 whole entry R23L) above, with N22A, L23R counted along it

B1: NCOA4 ferritin-binding fragment (amino acids 383-522), His-tagged (domain or fragment, UniProt Q13772 383-522, looked up)
chain: SMVTEDWLVQNHQDPCKVEEVCRANEPCTSFAECVCDENCEKEALYKWLLKKEGKDKNGMPVEPKPEPEKHKDSLNMWLCPRKEVIEQTKAPKAMTPSRIADSFQVIKNSPLSEWLIRPPYKEGSPKEVPGTEDRAGKQK
notes: No tag cleavage is described; also called NCOA4^FB; NCOA4-383-522; source: E. coli T7 Lys, purified (HisTrap, PD10 desalting)
Kd [1]: 2.4 µM | dH [1]: -5.5 kcal/mol | stoichiometry N [1]: 2.5 | Kd (FTH1-S114D (recombinant)): 3.5 µM | dH (FTH1-S114D (recombinant)): -4.66 kcal/mol | stoichiometry N (FTH1-S114D (recombinant)): 3 | Kd [2]: 5.6 µM | dH [2]: -5.26 kcal/mol | stoichiometry N [2]: 1.9

B2: C-terminally HA-FLAG-tagged NCOA4 (natural protein, UniProt Q13772 1-614, looked up)
chain: MNTFQDQSGSSSNREPLLRCSDARRDLELAIGGVLRAEQQIKDNLREVKAQIHSCISRHLECLRSREVWLYEQVDLIYQLKEETLQQQAQQLYSLLGQFNCLTHQLECTQNKDLANQVSVCLERLGSLTLKPEDSTVLLFEADTITLRQTITTFGSLKTIQIPEHLMAHASSANIGPFLEKRGCISMPEQKSASGIVAVPFSEWLLGSKPASGYQAPYIPSTDPQDWLTQKQTLENSQTSSRACNFFNNVGGNLKGLENWLLKSEKSSYQKCNSHSTTSSFSIEMEKVGDQELPDQDEMDLSDWLVTPQESHKLRKPENGSRETSEKFKLLFQSYNVNDWLVKTDSCTNCQGNQPKGVEIENLGNLKCLNDHLEAKKPLSTPSMVTEDWLVQNHQDPCKVEEVCRANEPCTSFAECVCDENCEKEALYKWLLKKEGKDKNGMPVEPKPEPEKHKDSLNMWLCPRKEVIEQTKAPKAMTPSRIADSFQVIKNSPLSEWLIRPPYKEGSPKEVPGTEDRAGKQKFKSPMNTSWCSFNTADWVLPGKKMGNLSQLSSGEDKWLLRKKAQEVLLNSPLQEEHNFPPDHYGLPAVCDLFACMQLKVDKEKWLYRTPLQM
notes: the discussion calls the NCOA4 of the cellular studies full-length; also called full-length NCOA4; source: HEK293T-FTH1 KO, transiently transfected, in lysate; HeLa-FTH1 KO, in lysate; not shown: HA, C-terminal, kept; FLAG, C-terminal, kept
relative interaction by immunoprecipitation (% of FTH1-WT) [3]: 13% | relative interaction by immunoprecipitation (% of FTH1-WT) [4]: 8.86% | relative interaction by immunoprecipitation (% of FTH1-WT) [5]: 3.72% | relative interaction by immunoprecipitation (% of FTH1-WT) [6]: 5.35% | relative interaction by immunoprecipitation (% of FTH1-WT) [7]: 111% | relative interaction by immunoprecipitation (% of FTH1-WT) [8]: 113% | relative interaction by immunoprecipitation (% of FTH1-WT) [9]: 86%
